Test results: patent publication US20240360228A1 (BIOLEGEND, published 2024)

What was measured:
[1] = biological target: T1, human chemokine (C-C motif) receptor 8 (CCR8) (human, UniProt P51685 1-355); experiment: cell-based or functional assay
[2] = biological target: T1, human chemokine (C-C motif) receptor 8 …; experiment: flow cytometry blocking, PBMC CCR8+ CD4+ cells; competitor PE-AB1 (its MFI is read)
Procedure: (§1) For blocking studies, 100 μL of the cell suspension were incubated with 10 μg purified isotype control, AB1, AB2, AB3, AB4, AB5, AB8, AB9, AB10, AB11, AB12, AB13, AB14, AB15, and Commercial ABI antibodies, or isotype control, as blocking agents.
(§2) After incubation with the blocking agent, the cells were incubated with 0.25 μg of the indicated PE-conjugated antibody plus anti-human CD4 APC or anti-human CD3 for another 15 minutes in the dark and then washed 2 times with Cell Staining Buffer, and acquired in a FACSCanto II flow cytometer (BD Biosciences); the data was analyzed using FCS Express (De Novo Software); MFI correspond to the CCR8+ CD4+ lymphocytes or CCR8+ CD3+ lymphocytes.
(§3) Percentage original MFI was calculated by dividing the MFI of samples blocked with AB1, AB2, AB3, AB4, AB5, AB6, AB7, AB8, AB9, AB10, AB11, AB12, AB13, AB14, AB15, and Commercial ABI antibodies, by the MFI of samples blocked with the corresponding isotype control. This value was subtracted from 100 to get a blocking percentage. The formula is shown below: […]

[3] = biological target: T1, human chemokine (C-C motif) receptor 8 …; experiment: flow cytometry blocking, PBMC CCR8+ CD4+ cells; competitor PE-AB2 (its MFI is read)
Procedure: as §1, §2, §3

[4] = biological target: T1, human chemokine (C-C motif) receptor 8 …; experiment: flow cytometry blocking, PBMC CCR8+ CD4+ cells; competitor PE-AB3 (its MFI is read)
Procedure: as §1, §2, §3

[5] = biological target: T1, human chemokine (C-C motif) receptor 8 …; experiment: flow cytometry blocking, PBMC CCR8+ CD4+ cells; competitor PE-AB4 (its MFI is read)
Procedure: as §1, §2, §3

[6] = biological target: T1, human chemokine (C-C motif) receptor 8 …; experiment: flow cytometry blocking, PBMC CCR8+ CD4+ cells; competitor PE-AB5 (its MFI is read)
Procedure: as §1, §2, §3

[7] = biological target: T1, human chemokine (C-C motif) receptor 8 …; experiment: flow cytometry blocking, PBMC CCR8+ CD4+ cells; competitor PE-AB6 (its MFI is read)
Procedure: as §1, §2, §3

[8] = biological target: T1, human chemokine (C-C motif) receptor 8 …; experiment: flow cytometry blocking, PBMC CCR8+ CD4+ cells; competitor PE-AB10 (its MFI is read)
Procedure: as §1, §2, §3

[9] = biological target: T1, human chemokine (C-C motif) receptor 8 …; experiment: flow cytometry blocking, PBMC CCR8+ CD4+ cells; competitor PE-AB11 (its MFI is read)
Procedure: as §1, §2, §3

[10] = biological target: T1, human chemokine (C-C motif) receptor 8 …; experiment: flow cytometry blocking, PBMC CCR8+ CD4+ cells; competitor PE-AB12 (its MFI is read)
Procedure: as §1, §2, §3

[11] = biological target: T1, human chemokine (C-C motif) receptor 8 …; experiment: flow cytometry blocking, PBMC CCR8+ CD4+ cells; competitor PE-AB13 (its MFI is read)
Procedure: as §1, §2, §3

[12] = biological target: T1, human chemokine (C-C motif) receptor 8 …; experiment: flow cytometry blocking, PBMC CCR8+ CD4+ cells; competitor PE-AB14 (its MFI is read)
Procedure: as §1, §2, §3

[13] = biological target: T1, human chemokine (C-C motif) receptor 8 …; experiment: flow cytometry blocking, PBMC CCR8+ CD4+ cells; competitor PE-AB15 (its MFI is read)
Procedure: as §1, §2, §3

[14] = biological target: T1, human chemokine (C-C motif) receptor 8 …; experiment: flow cytometry blocking, PBMC CCR8+ CD4+ cells; competitor PE-ABII (its MFI is read)
Procedure: as §1, §2, §3

T1 sequence (P51685 whole entry): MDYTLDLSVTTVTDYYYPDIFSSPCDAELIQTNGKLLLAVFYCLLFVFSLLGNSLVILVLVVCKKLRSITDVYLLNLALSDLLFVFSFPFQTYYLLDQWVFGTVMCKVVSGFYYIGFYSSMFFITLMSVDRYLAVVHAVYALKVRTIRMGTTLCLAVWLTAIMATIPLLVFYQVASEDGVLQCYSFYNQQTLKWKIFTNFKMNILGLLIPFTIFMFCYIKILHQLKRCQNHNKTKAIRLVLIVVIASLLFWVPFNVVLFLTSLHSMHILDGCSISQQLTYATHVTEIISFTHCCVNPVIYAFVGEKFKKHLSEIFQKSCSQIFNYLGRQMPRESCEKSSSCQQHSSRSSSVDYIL

Binder	% hCCR8-Ba/F3 - THP-1 complexes [1] [%]	% Blocking [2] [%]	MFI [2]	% Blocking [3] [%]	MFI [3]	% Blocking [4] [%]	MFI [4]	% Blocking [5] [%]	MFI [5]	% Blocking [6] [%]	MFI [6]	% Blocking [7] [%]	MFI [7]	% Blocking [8] [%]	MFI [8]	% Blocking [9] [%]	MFI [9]	% Blocking [10] [%]	MFI [10]	% Blocking [11] [%]	further results
AB1 (antibody, V domains shown, Hybridoma monoclonal (mice or rats immunised); Used purified and PE-conjugated; also called antibody 1; clone 1) VH: QVQLKESGPGLVKPSETLSLTCTVSGFSLTSYHISWVRQPPGKGLEWMGVIWGDGSKTYNSALKSRLSISRDTSKSQVFLKMRSLKTEDTATYYCARGGDSGFAYWGQGTLVTVSS VL: DIQMTQSPASLSASLEEIVTITCQASQDIGNWLSWYQQKPGKSPQLLIYGTTNLADGVPSRFSGSRSGTQYSLKISRLQVEDIGIYYCLQAYSVPLTFGSGTKLEIK	0.6	28.8	467	46.8	356	48.3	359	100	0	25.7	557	40.2	469	0.2	1010	-4.76	944	-6.83	1040	1.62	MFI [11]: 921; % Blocking [12]: 6.44%; MFI [12]: 829; % Blocking [13]: 1.66%; MFI [13]: 780; % Blocking [14]: 2.87%; MFI [14]: 1080
AB4 (antibody, V domains shown, Hybridoma monoclonal; also called antibody 4; clone 4) VH: QVQLKESGPGLVKPSETLSLTCTVSGFSLTGYHVSWVRQPPGKGLEWMGVIWGDGRTTYNSALKSRLSISRDTSKSQVFLKMSSLKTEDTATYYCARGGDSGFAYWGQGTLVTVSS VL: DIQMTQSPASLSASLEEIVTITCQASQDIGNWLSWYQQKPGKSPQLLIYGATSLADGVPSRFSGSRSGTQFSLKISRLQVEDIGIYYCLQAYIVPLTFGSGTKLESK	0.43	100	0	45.8	363	48.2	359	-61.4	1100	45.1	411	47.3	413	-12.2	1130	-13.3	1020	-4.04	1020	-3.67	MFI [11]: 971; % Blocking [12]: 0.97%; MFI [12]: 878; % Blocking [13]: -7.83%; MFI [13]: 855; % Blocking [14]: -7.57%; MFI [14]: 1190
AB3 (antibody, V domains shown, Hybridoma monoclonal; also called antibody 3; clone 3) VH: QVQLKESGPGLVKPSETLSLTCTVSGFSLTSYHISWVRQPPGKGLEWMGVIWGDGKTTYNSALKSRLSISRDTSKSQVFLKMNSLKTEDTATYYCARGGDSGFAYWGQGTLVTVSS VL: DIQMTQSPASLSASLEEIVTITCQASQDIGNWLSWYQQKPGKSPQLLIYGTTNLADGVPSRFSGSRSGTQYSLKISRLQVEDIGIYYCLQAYSVPLTFGSGTKLEIK	0.74	36.5	416	37	422	100	0	34.6	446	38.8	459	45.5	427	-1.1	1020	-4.37	941	-7.35	1050	7.12	MFI [11]: 870; % Blocking [12]: -2.68%; MFI [12]: 910; % Blocking [13]: -10.2%; MFI [13]: 874; % Blocking [14]: 3.05%; MFI [14]: 1070
AB12 (antibody, V domains shown, Hybridoma monoclonal; also called antibody 12; clone 12) VH: EVQLVESGGGLVQPKGSLKLSCAASGFAFNTYAMNWVRQAPGKGLEWIARLRSKSNFYATYYADSVKDRFTISRDDSQSMLYLQMNNLKTEDTAVYYCVRGRELGPSYAMDYWGQGTSVTVSS VL: DIVMTQAAPSVPVTPGESVSISCRSSKSLLHSNGNTYLYWFLQRPGQSPQLLIYRMSNLASGVPDRFSGSGSGTAFTLRISRVEAEDVGVYYCMQHLEYPYTFGGGTKLEIK	1.56	-45.4	953	-46.8	983	-27.5	885	-54.7	1060	-36.2	1020	-24.1	973	5.71	950	23.6	689	-5.38	1030	14.2	MFI [11]: 803; % Blocking [12]: 100%; MFI [12]: 0; % Blocking [13]: 7.39%; MFI [13]: 734; % Blocking [14]: 22.9%; MFI [14]: 854
